The target in test [1] is Manα2Manα2Manα-ThrB27 insulin glycoform 13 (human). As to the kind of experiment: AUC.
The target in test [2] is unglycosylated human insulin 1 (human). Briefly: AUC.

Substance “Manα2Manα2Manα-ThrB27 insulin glycoform 13 (natural protein)” came in with a percent monomer in test [1] of over 70%. In the case of “unglycosylated human insulin 1 (natural protein)”, in test [2], the stoichiometry N – broadly, a count of units in the complex or per binding partner – came out at 2.
